From publication PMC6740198 (Molecular Biology of the Cell, 2019)

What was measured:
[1] = molecular target: CD4-AChR β subunit MA loop chimera (UniProt P09690 333-469); experiment: co-IP
[2] = molecular target: acetylcholine receptor (AChR) (mouse (endogenous in C2C12 myotubes and mouse muscle)) (UniProt P04756); experiment: pull-down

B1: Flag-vezatin (natural protein, UniProt Q3ZK22 1-780, looked up)
chain: MTPEFDEEVVFENSPLYQYLQDLGHTDFEICSSSSPKPEKCLTTEGPQPPPTRVLQRQGILLKLTETIKSWTFSSQHSKKDDLLHKLDTGFRLDSLHTILQQEVLLQEDVELLELLDASILSAGQPQQESGHLPTLCSLATPNTWDVSLLFAFISLLIMFPTCWIVSSWLVWGIILFLYLIIRVLKLWRTAKLQMTLKKYRVRLEDMAANSRAFTNLVRKSLRLIQETEVISRGFTLVSAACSFNKAAQHPGQHLIGLRKAVYRTVRANFQAARLATLYMLKNYPLNSESDNVTNYICVVPFKELGLGLSEDQISEEEARNLTDGFSLPALKVLFQLWVAQSSEFFRRLALLLSTANSPSGPLLTAALLPHHILCDVTQGLPHAHSACLDELKRSYEFFRYFETQHQSVPQRLSKTPQKSRELSNVHTAVRSLQLHLKALLNEVIILEDELEKLVCTKETQELLSEAYPILEQKLKLIEPHVQASNSCWEEAISQVDKLLRRNTDKKGKPGVACENPHCTAEPLVRPALHIEDRDPIPEEQELEAYVDDIDIESEFRKDDFYHLSQEDRERQKREQEESRRVLQELKSVLGFKASEAERQKWKQLLFSDHAVLTSLSPVDPVESVSNSEPPMNSDTEKVNSNATEEETSKPCAGDKEDSRTEYVCDSPTEGPSKDTSADTGLLLPGAEETMCHQHESEAKSPQAAAAGATAPPTPRDTLQLSIKQRLARLQLPPEFTFSAGLAAEVAARSLSFTTMQEQTFGDEEEEQLVEGGENEVEEK
For B1, the “fold reduction of association when rapsyn-HA is coexpressed” value [1] was 4 fold, the fold increase in association in rapsn−/− against rapsn+/− muscle [2] was 1.8 fold and the fold increase in association with agrin treatment (against untreated myotubes) [2] was 1.6 fold.
